Assay results from PMC6366758 (2019).

How the values were obtained:
Post-fusion F [1] = molecular target: T1, Post-fusion F (human respiratory syncytial virus A2 …); experiment: SPR
Post-fusion F [2] = molecular target: T1, Post-fusion F; experiment: SPR; remark: listed apart in the source

Row | Binder | koff (Post-fusion F [1]) | Kd (Post-fusion F [2])
1 | R4.C6 monoclonal antibody (antibody, V domains shown) VH: EVQLQQSGPELVKPGASVKISCKASGYAFSNSWMSWVKQRPGKGLEWIGRLFPADGDITYNGHFKDKAALTADKSSNTAYIQLSSLTSEDSAVYFCARMDNSEVFWGQGTLVTVSA VL: DILLTQSQKFMSTSVGDRVSITCKASQNVRTGVSWYQRKPGQSPKALIYLASNRHTGVPDRFTGRGSGTDFTLTISEVQSEDLADYFCLQHWTVPYTFGGGTKLEIK | 3.74e-05 s⁻¹ | –
2 | Motavizumab (antibody, V domains shown) VH: QVTLRESGPALVKPTQTLTLTCTFSGFSLSTAGMSVGWIRQPPGKALEWLADIWWDDKKHYNPSLKDRLTISKDTSKNQVVLKVTNMDPADTATYYCARDMIFNFYFDVWGQGTTVTVSS VL: DIQMTQSPSTLSASVGDRVTITCSASSRVGYMHWYQQKPGKAPKLLIYDTSKLASGVPSRFSGSGSGTEFTLTISSLQPDDFATYYCFQGSGYPFTFGGGTKVEIK | 1.44e-05 s⁻¹ | 0.04 nM
